According to article PMC11390915, “Histones and histone variant families in prokaryotes” (Nature Communications, 2024):

Biological target: the molecule itself
Test: crystal structure; HTkC at 4.0 mg/mL in 50 mM Tris-HCl pH 7.0, 100 mM KCl, 10% glycerol; sitting drop vapor diffusion, reservoir 0.01 M trisodium citrate, 33% (w/v) PEG 6000; space group P2(1)2(1)2(1), 1.84 Å; four monomers in the asymmetric unit

B1: face-to-face (FtF) histone from Thermococcus kodakarensis (HTkC) (natural protein)
chain: MAEMLVKSKVKEFVKSVDPEMRVSPEFYDALEAEVKALVEKAIKRAQAEGRKTLYARHV
notes: Face-to-face (FtF) histone HTkC of Thermococcus kodakarensis, product of gene TK1040; synthesized gene cloned into pET30b (plasmid pRD503); The purification used heat, heparin and SEC only, so the protein is probably untagged (surmised); Oligonucleotides for cloning are in the Supplementary Information; also called FtF histone HTkC; TK1040; source: E. coli BL21(DE3)pLysS, purified (heating at 70 …)
- stoichiometry N: 4
